According to patent US20060057138A1 (published 2006):
Residue numbers refer to the chain shown, from its start.

T1: recombinant human Tie1-Fc (Tie1 extracellular domain fused to human Fc) (human, UniProt P35590 25-759)
T1 construct: also called human Tie1-Fc fusion protein; not shown: human Fc
T1 sequence: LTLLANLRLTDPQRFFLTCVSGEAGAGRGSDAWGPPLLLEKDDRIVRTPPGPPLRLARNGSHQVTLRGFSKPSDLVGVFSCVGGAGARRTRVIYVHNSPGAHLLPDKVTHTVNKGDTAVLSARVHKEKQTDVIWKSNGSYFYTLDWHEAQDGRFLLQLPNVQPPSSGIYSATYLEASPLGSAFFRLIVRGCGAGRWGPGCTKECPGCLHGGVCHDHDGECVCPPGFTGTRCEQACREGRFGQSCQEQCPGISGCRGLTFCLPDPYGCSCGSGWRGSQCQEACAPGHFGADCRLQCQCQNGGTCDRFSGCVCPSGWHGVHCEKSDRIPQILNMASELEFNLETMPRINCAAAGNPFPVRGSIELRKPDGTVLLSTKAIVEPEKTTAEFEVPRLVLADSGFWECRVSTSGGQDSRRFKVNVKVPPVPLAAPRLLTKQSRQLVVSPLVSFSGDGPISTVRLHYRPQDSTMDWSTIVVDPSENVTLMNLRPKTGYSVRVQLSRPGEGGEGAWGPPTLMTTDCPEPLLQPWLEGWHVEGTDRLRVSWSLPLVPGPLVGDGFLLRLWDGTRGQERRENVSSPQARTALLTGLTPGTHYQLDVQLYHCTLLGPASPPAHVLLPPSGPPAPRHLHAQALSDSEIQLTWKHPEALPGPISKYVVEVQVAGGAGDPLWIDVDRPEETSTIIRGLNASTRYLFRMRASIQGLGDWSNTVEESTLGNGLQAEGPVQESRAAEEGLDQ

T2: recombinant mouse Tie1-Fc (mouse, UniProt Q06806 23-755)
T2 construct: extracellular domain; also called Mouse Tie 1-Fc antigen; mouse Tie1-Fc fusion protein; not shown: Fc
T2 sequence (looked up): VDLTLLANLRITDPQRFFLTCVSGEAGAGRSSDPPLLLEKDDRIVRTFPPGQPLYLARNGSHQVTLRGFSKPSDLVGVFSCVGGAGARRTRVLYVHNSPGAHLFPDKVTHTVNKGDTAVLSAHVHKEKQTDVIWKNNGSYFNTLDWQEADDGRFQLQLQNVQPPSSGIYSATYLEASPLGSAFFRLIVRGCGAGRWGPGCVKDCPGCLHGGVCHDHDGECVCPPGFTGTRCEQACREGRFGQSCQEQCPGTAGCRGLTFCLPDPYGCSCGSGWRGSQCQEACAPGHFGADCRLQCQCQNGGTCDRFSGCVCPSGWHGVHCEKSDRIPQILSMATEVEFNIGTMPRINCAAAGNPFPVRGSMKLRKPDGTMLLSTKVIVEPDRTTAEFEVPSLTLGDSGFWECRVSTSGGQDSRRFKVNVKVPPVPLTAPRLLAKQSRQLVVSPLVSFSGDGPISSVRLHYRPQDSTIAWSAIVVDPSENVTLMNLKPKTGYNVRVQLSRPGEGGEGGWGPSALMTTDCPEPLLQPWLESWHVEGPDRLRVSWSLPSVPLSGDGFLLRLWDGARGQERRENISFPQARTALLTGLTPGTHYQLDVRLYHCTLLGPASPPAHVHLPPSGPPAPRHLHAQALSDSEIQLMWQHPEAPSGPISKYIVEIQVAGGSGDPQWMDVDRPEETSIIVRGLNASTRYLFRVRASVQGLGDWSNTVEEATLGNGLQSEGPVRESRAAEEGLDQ

B1: parental E3 Fab (Fab, V domains shown)
VH: EVQLLESGGGLVQPGGSLRLSCAASGFTFSMYGMVWVRQAPGKGLEWVSVISPSGGNTGYADSVKGRFTISRDNSKNTLYLQVNSLRAEDTAVYYCARAPRGYSYGYYYWGQGTLVTVSS
VL: DIQMTQSPLSLSASVGDRVTITCRASQGIGHYLAWYQQKPGKVPKLLIYTASTLQSGVPSRFSGSGSGTDFTLTINSLQPEDVATYYCQQFNSYPHTFGQGTRLDIK
notes: also called E3 Fab parental; parental Fab E3
B2: E3b Fab (heavy and light chain germlined E3 Fab) (Fab, V domains shown)
VH: B1 VH with V83M
VL: B1 VL with L9S, N76S, D105E
notes: The germlined heavy variable domain is printed with limits only under DX-2240; also called Fab E3b; germlined (E3b)
B3: DX-2220 (full length, IgG1, germlined human anti-Tie1 antibody E3b) (antibody, V domains shown)
VH: B1 VH with V83M
VL: DIQMTQSPSSLSASVGDRVTITCRASQGIGHYLAWYQQKPGKVPKLLIYTASTLQSGVPSRFSGSGSGTDFTLTISSLQPEDVATYYCQQFNSYPHTFGQGTRLEIKR
notes: also called E3b-IgG1; germlined E3b IgG1

Columns and labels:
[1] = target: T1, recombinant human Tie1-Fc (Tie1 …); assay: SPR (BIAcore 3000), CM5 chip; format of this row not stated
Protocol: (§1) Affinity analysis of the Fab and IgGs was performed using surface plasmon resonance using a BIAcore 3000 instrument. For this analysis both dimeric (Tie1-Fc fusion protein) and monomeric (Tie1-HIS) versions of the extracellular domain of the Tie1 were used. The sensor chips used in these experiments were CM5 (dextran-coated) which allow immobilization of proteins to the chip via standard amine coupling chemistries. The concentration of flowed antibody was determined using a surface plasmon resonance based method. Using a high-density protein A sensor chip, under mass transport limited conditions, the response signal is dependent only on the concentration of the antibody in the sample under test. This approach allows a precise determination of the antibody concentration, a parameter important for accurate determination of the KD.
470 RUs of Tie1 HIS protein were coated on a CM5 sensor chip and 5, 20, 100, and 500 nM of the Fab flowed over the chip at four different flow rates ([…]), rates in which the system is not mass transport limited. Kinetic data was typically determined using a range of analyte concentrations and three different chip coating densities. The data from the lowest coating density that gave a good signal was typically chosen, this was often in a range from 50-100 RUs. Using such low coating densities allowed the sensor curves to be fit using BIAEVALUATION™ 3.0 software to a 1:1 model, often even when using a bivalent analyte (IgG or Tie1-Fc fusion protein). For bivalent analytes, when fit to a 1:1 model was not possible, the curves were fit using a 2:1 model.

[2] = target: T1, recombinant human Tie1-Fc (Tie1 …); assay: SPR, Tie1-Fc immobilized on the sensor chip, Fab as analyte
Protocol: as §1

[3] = target: T2, recombinant mouse Tie1-Fc; assay: as above
Protocol: as §1

[4] = target: T1, recombinant human Tie1-Fc (Tie1 …); assay: SPR, Tie1-Fc immobilized on CM5 sensor chip, bivalent anti-Tie1 as analyte
Protocol: as §1

| Binder | Kd [1] [nM] | koff [1] [s⁻¹] | kon [1] [M⁻¹ s⁻¹] | Kd [2] [nM] | Kd [3] [nM] | Kd [4] [nM] | fold increase in affinity against the anti-Tie1 Fab [4] [fold] |
| --- | --- | --- | --- | --- | --- | --- | --- |
| B1 | 5.4 | 4.47e-05 | 8260 | – | – | – | – |
| B2 | 4.7 | 4.41e-05 | 9300 | ~3 | ~3 | – | – |
| B3 | 5.2 | 3.67e-05 | 7090 | – | – | 0.2 | > 10 |
